Measurements published in publication PMC12282171, “VCY mediates inhibition of PFV replication via interaction with the transcription activator Tas” (Journal of Virology, 2025).

Biological target: His-VCY (human, UniProt O14598 1-125)
Assay: pull-down; purified His-VCY added to purified GST-Tas or GST coupled to glutathione sepharose, 3 h at 4 °C; western blot
Conditions: both partners purified

B1: GST-Tas (natural protein)
chain: MDSYEKEESVASTSGIQDLQTLSELVGPENAGEGELTIAEEPEENPRRPRRYTKREVKCVSYHAYKEIEDKHPQHIKLQDWIPTPEEMSKSLCKRLILCGLYSAEKASEILRMPFTVSWEQSDTDPDCFIVSYTCIFCDAVIHDPMPIRWDPEVGIWVKYKPLRGIVGSAVFIMHKHQRNCSLVKPSTSCSEGPKPRPRHDPVLRCDMFEKHHKPRQKRPRRRSIDNESCASSSDTMANEPGSLCTNPLWNPGPLLSGLLEESSNLPNLEVHMSGGPFWEEVYGDSILGPPSGSGEHSVL
notes: also called recombinant GST-Tas; pGST-Tas; source: E. coli BL21, purified (GST column)
  binding result: binds
